Results reported in the supplement of paper PMC9112550, “Optimization of the antimicrobial peptide Bac7 by deep mutational scanning” (BMC Biology, 2022).
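Note: peptides expressed intracellularly from a pBAD plasmid library in pooled LB shake-flask culture, induced with 0.3% L-arabinose, DNA abundance read by NGS, three biological replicates, DESeq2 with apeglm shrinkage.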

The sequences below were run on Escherichia coli TOP10 (assay: shrunken log2 fold change of peptide-encoding DNA abundance (4.5 h post-induction vs induction); higher = less antimicrobial activity (less host growth inhibition)). Settings: time post-induction: 4.5 h; library: site-saturation at positions 5, 18, 19, 20.
RRIRRRPPRLPRPRPRPYLTPRP was tested, and the “shrunken log2 fold change” value was 0.0355. For RRIRLRPPRLPRPRPRPPLRPRP, the “shrunken log2 fold change” value was 0.386. In the case of RRIRPRPPRLPRPRPRPMVLPRP, the “shrunken log2 fold change” value is reported as 0.0636. RRIRPRPPRLPRPRPRPKLRPRP was tested, and the “shrunken log2 fold change” value was 0.204. For RRIRNRPPRLPRPRPRPRNLPRP, the “shrunken log2 fold change” value was -0.0378. For RRIRARPPRLPRPRPRPPWTPRP, the “shrunken log2 fold change” value was 0.385. In the case of RRIRDRPPRLPRPRPRPILEPRP, the “shrunken log2 fold change” value is reported as -0.0842. With RRIRTRPPRLPRPRPRPFKTPRP the “shrunken log2 fold change” value was 0.0238. With RRIRARPPRLPRPRPRPWYLPRP the “shrunken log2 fold change” value was -0.161. RRIRRRPPRLPRPRPRPEQQPRP was tested, and the “shrunken log2 fold change” value was 0.22. With RRIRARPPRLPRPRPRPYVMPRP the “shrunken log2 fold change” value was -0.211. RRIRDRPPRLPRPRPRPKQNPRP was tested, and the “shrunken log2 fold change” value was 0.277. In the case of RRIRVRPPRLPRPRPRPTKPPRP, the “shrunken log2 fold change” value is reported as 0.172. In the case of RRIRLRPPRLPRPRPRPWSNPRP, the “shrunken log2 fold change” value is reported as -0.195. RRIRGRPPRLPRPRPRPIFVPRP was tested, and the “shrunken log2 fold change” value was 0.42. In the case of RRIRIRPPRLPRPRPRPKKAPRP, the “shrunken log2 fold change” value is reported as -0.209. With RRIRTRPPRLPRPRPRPLIVPRP the “shrunken log2 fold change” value was -0.438. RRIRDRPPRLPRPRPRPAFQPRP was tested, and the “shrunken log2 fold change” value was 0.201. With RRIRLRPPRLPRPRPRPLWDPRP the “shrunken log2 fold change” value was 0.466. With RRIRSRPPRLPRPRPRPAFEPRP the “shrunken log2 fold change” value was 0.0595. For RRIRNRPPRLPRPRPRPAIRPRP, the “shrunken log2 fold change” value was -0.0992. RRIRLRPPRLPRPRPRPITYPRP was tested, and the “shrunken log2 fold change” value was -0.266. In the case of RRIRCRPPRLPRPRPRPYVPPRP, the “shrunken log2 fold change” value is reported as -0.323. For RRIRRRPPRLPRPRPRPGICPRP, the “shrunken log2 fold change” value was 0.0771. RRIRHRPPRLPRPRPRPNTMPRP was tested, and the “shrunken log2 fold change” value was -0.905. With RRIRPRPPRLPRPRPRPVPEPRP the “shrunken log2 fold change” value was 0.0758. For RRIRPRPPRLPRPRPRPKYRPRP, the “shrunken log2 fold change” value was 2.73. In the case of RRIRQRPPRLPRPRPRPNHCPRP, the “shrunken log2 fold change” value is reported as -0.0615. RRIRDRPPRLPRPRPRPFAMPRP was tested, and the “shrunken log2 fold change” value was -0.188. In the case of RRIRWRPPRLPRPRPRPCPAPRP, the “shrunken log2 fold change” value is reported as -0.0319. In the case of RRIRPRPPRLPRPRPRPRRPPRP, the “shrunken log2 fold change” value is reported as 0.489. For RRIRARPPRLPRPRPRPKGSPRP, the “shrunken log2 fold change” value was 0.199. RRIRSRPPRLPRPRPRPYNMPRP was tested, and the “shrunken log2 fold change” value was -0.817. RRIRSRPPRLPRPRPRPMRMPRP was tested, and the “shrunken log2 fold change” value was 0.323. With RRIRNRPPRLPRPRPRPFHKPRP the “shrunken log2 fold change” value was -0.107. With RRIRLRPPRLPRPRPRPTAKPRP the “shrunken log2 fold change” value was 0.134. With RRIRGRPPRLPRPRPRPEDCPRP the “shrunken log2 fold change” value was 0.874. In the case of RRIRVRPPRLPRPRPRPSEAPRP, the “shrunken log2 fold change” value is reported as 0.0122. With RRIRCRPPRLPRPRPRPGEKPRP the “shrunken log2 fold change” value was 0.0653. RRIRMRPPRLPRPRPRPHSGPRP was tested, and the “shrunken log2 fold change” value was 0.00795. RRIRVRPPRLPRPRPRPKELPRP was tested, and the “shrunken log2 fold change” value was -0.00952. RRIRQRPPRLPRPRPRPHMCPRP was tested, and the “shrunken log2 fold change” value was -0.0238. In the case of RRIRFRPPRLPRPRPRPMGKPRP, the “shrunken log2 fold change” value is reported as -0.307. For RRIRERPPRLPRPRPRPPVRPRP, the “shrunken log2 fold change” value was 0.538. For RRIRCRPPRLPRPRPRPFQNPRP, the “shrunken log2 fold change” value was -0.0078. In the case of RRIRSRPPRLPRPRPRPFSKPRP, the “shrunken log2 fold change” value is reported as -0.0877. With RRIRVRPPRLPRPRPRPTDQPRP the “shrunken log2 fold change” value was -0.0162. RRIRCRPPRLPRPRPRPGCLPRP was tested, and the “shrunken log2 fold change” value was 0.115. For RRIRVRPPRLPRPRPRPKRCPRP, the “shrunken log2 fold change” value was -0.0118. RRIRIRPPRLPRPRPRPIVGPRP was tested, and the “shrunken log2 fold change” value was 0.00911. For RRIRVRPPRLPRPRPRPTQDPRP, the “shrunken log2 fold change” value was 0.386. In the case of RRIRQRPPRLPRPRPRPNWNPRP, the “shrunken log2 fold change” value is reported as -0.206. For RRIRGRPPRLPRPRPRPSMYPRP, the “shrunken log2 fold change” value was 0.173. For RRIRSRPPRLPRPRPRPSHCPRP, the “shrunken log2 fold change” value was 0.079. With RRIRTRPPRLPRPRPRPNKNPRP the “shrunken log2 fold change” value was -0.156. For RRIRHRPPRLPRPRPRPNNDPRP, the “shrunken log2 fold change” value was -0.727. With RRIRERPPRLPRPRPRPLGIPRP the “shrunken log2 fold change” value was -0.0554. With RRIRPRPPRLPRPRPRPHKPPRP the “shrunken log2 fold change” value was -0.0376. RRIRMRPPRLPRPRPRPAITPRP was tested, and the “shrunken log2 fold change” value was 0.0226. RRIRERPPRLPRPRPRPGFYPRP was tested, and the “shrunken log2 fold change” value was 0.057. For RRIRQRPPRLPRPRPRPWCVPRP, the “shrunken log2 fold change” value was -0.115. In the case of RRIRFRPPRLPRPRPRPNFRPRP, the “shrunken log2 fold change” value is reported as 0.157. In the case of RRIRIRPPRLPRPRPRPFFCPRP, the “shrunken log2 fold change” value is reported as -0.106. With RRIRCRPPRLPRPRPRPSCKPRP the “shrunken log2 fold change” value was -0.685. For RRIRQRPPRLPRPRPRPSLQPRP, the “shrunken log2 fold change” value was -0.154. In the case of RRIRQRPPRLPRPRPRPHCPPRP, the “shrunken log2 fold change” value is reported as -0.0268. RRIRWRPPRLPRPRPRPPDYPRP was tested, and the “shrunken log2 fold change” value was 0.184. In the case of RRIRLRPPRLPRPRPRPIVDPRP, the “shrunken log2 fold change” value is reported as -0.103. RRIRTRPPRLPRPRPRPGNRPRP was tested, and the “shrunken log2 fold change” value was 0.192. With RRIRYRPPRLPRPRPRPGNNPRP the “shrunken log2 fold change” value was -0.359. RRIRFRPPRLPRPRPRPYWRPRP was tested, and the “shrunken log2 fold change” value was -0.0769. With RRIRWRPPRLPRPRPRPQNFPRP the “shrunken log2 fold change” value was 0.0414. In the case of RRIRQRPPRLPRPRPRPIVEPRP, the “shrunken log2 fold change” value is reported as 0.0141. For RRIRQRPPRLPRPRPRPGHSPRP, the “shrunken log2 fold change” value was -0.00616. RRIRWRPPRLPRPRPRPGKHPRP was tested, and the “shrunken log2 fold change” value was 0.0375.
